Measurements reported in patent publication US20110045007A1.

Columns and labels:
2F8-HG F273A (human) = assay: non-covalent nano-electrospray mass spectrometry, 1 µM; self-association
2F8-HG F273L (human) = assay: as above

Row | percentage molecules present as monomers (2F8-HG F273A (human)) | percentage molecules present as monomers (2F8-HG F273L (human)) | Binder
1 | > 80% | – | 2F8-HG F273A (antibody, part only; not given: 2F8 variable domains, not shown: a dimerising Fc or GST) heavy, part: ASTKGPSVFPLAPCSRSTSESTAALGCLVKDYFPEPVTVSWNSGALTSGVHTFPAVLQSSGLYSLSSVVTVPSSSLGTKTYTCNVDHKPSNTKVDKRVAPEFLGGPSVFLFPPKPKDTLMISRTPEVTCVVVDVSQEDPEVQFNWYVDGVEVHNAKTKPREEQFNSTYRVVSVLTVLHQDWLNGKEYKCKVSNKGLPSSIEKTISKAKGQPREPQVYTLPPSQEEMTKNQVSLTCLVKGFYPSDIAVEWESNGQPENNYKTTPPVLDSDGSFALYSRLTVDKSRWQEGNVFSCSVMHEALHNHYTQKSLSLSLGK
2 | – | > 80% | 2F8-HG F273L (antibody, part only; not given: 2F8 variable domains, not shown: a dimerising Fc or GST) heavy, part: ASTKGPSVFPLAPCSRSTSESTAALGCLVKDYFPEPVTVSWNSGALTSGVHTFPAVLQSSGLYSLSSVVTVPSSSLGTKTYTCNVDHKPSNTKVDKRVAPEFLGGPSVFLFPPKPKDTLMISRTPEVTCVVVDVSQEDPEVQFNWYVDGVEVHNAKTKPREEQFNSTYRVVSVLTVLHQDWLNGKEYKCKVSNKGLPSSIEKTISKAKGQPREPQVYTLPPSQEEMTKNQVSLTCLVKGFYPSDIAVEWESNGQPENNYKTTPPVLDSDGSFLLYSRLTVDKSRWQEGNVFSCSVMHEALHNHYTQKSLSLSLGK
